Biological target: human C3b (human) (UniProt P01024)
Test: SPR (Biacore 3000), human C3b amine-coupled to CM5 chip, FHR-4 injected at 1 to 100 µg/ml, 1:1 Langmuir fit

Sequence of UniProt P01024 (P01024 23-667 limits assumed, chain 1 of 2): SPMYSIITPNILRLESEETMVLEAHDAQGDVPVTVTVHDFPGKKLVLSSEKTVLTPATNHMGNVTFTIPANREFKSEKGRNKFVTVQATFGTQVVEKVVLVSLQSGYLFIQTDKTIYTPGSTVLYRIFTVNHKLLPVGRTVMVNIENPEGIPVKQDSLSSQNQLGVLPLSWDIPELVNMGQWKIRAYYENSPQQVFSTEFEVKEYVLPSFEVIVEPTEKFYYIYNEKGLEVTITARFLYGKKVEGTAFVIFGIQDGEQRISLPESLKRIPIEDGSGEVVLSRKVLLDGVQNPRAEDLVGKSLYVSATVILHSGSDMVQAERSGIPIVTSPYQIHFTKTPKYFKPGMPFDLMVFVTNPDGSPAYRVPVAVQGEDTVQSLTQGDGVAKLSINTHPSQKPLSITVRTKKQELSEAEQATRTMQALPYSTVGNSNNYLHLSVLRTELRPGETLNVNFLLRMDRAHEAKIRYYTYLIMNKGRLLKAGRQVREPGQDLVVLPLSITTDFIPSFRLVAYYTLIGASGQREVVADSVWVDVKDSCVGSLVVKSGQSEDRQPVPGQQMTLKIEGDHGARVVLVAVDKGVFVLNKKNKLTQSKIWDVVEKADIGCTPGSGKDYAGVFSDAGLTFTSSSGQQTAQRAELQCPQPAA
Sequence of UniProt P01024 (P01024 749-1663 limits assumed, chain 2 of 2): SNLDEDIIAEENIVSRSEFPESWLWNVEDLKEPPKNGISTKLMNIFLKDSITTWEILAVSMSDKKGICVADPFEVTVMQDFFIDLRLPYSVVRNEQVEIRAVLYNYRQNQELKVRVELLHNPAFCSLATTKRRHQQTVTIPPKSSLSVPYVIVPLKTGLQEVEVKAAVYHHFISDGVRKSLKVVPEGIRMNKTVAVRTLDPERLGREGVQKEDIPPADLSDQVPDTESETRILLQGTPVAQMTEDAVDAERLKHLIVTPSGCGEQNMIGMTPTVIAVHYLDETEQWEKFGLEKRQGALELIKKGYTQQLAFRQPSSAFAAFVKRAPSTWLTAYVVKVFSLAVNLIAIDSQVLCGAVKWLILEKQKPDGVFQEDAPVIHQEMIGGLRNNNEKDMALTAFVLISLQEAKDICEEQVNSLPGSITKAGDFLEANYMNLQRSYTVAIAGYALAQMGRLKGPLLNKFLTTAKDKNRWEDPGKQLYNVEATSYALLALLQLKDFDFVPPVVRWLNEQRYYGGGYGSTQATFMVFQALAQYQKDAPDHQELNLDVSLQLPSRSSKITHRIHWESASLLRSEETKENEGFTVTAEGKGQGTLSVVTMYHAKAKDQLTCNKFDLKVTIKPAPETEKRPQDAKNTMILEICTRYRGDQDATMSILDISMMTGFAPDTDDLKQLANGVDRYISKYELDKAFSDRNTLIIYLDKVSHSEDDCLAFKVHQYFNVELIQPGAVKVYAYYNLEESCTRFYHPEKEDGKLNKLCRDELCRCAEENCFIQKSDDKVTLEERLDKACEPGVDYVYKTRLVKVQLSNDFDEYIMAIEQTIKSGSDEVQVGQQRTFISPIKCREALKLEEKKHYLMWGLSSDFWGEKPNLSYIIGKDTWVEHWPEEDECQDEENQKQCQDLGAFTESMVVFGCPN

complement factor H-related protein 4 (FHR-4) (from UniProt Q92496 20-578)
Kd: 1100 nM
